Experimental data: IntAct's records for PubMed 16530190

B1: Actin-binding protein WASF1 (Rattus norvegicus (Rat)), Q5BJU7 (parent)
chain: MPLVKRNIDPRHLCHTALPRGIKNELECVTNISLANIIRQLSSLSKYAEDIFGELFNEAHSFSFRVNSLQERVDRLSVSVTQLDPKEEELSLQDITMRKAFRSSTIQDQQLFDRKTLPIPLQETYDVCEQPPPLNVLTPYRDDGKEGLKFYTNPSYFFDLWKEKMLQDTEDKRKEKRKQKQKNLDRPHEPEKVPRAPHDRRREWQKLAQGPELAEDDADLLHKHIEVANGPASHFETRPQTYVDHMDGSYSLSALPFSQMSELLSRAEERVLVRPHEPPPPPPMHAAGDARPTPTCVSSAAGLIENRPQSPAAGRTPVFVSPTPPPPPPPLPSALSTSSLRASMTSTPPPPVPPPPPPPAPALQAPAVPPPPAPLQIAPGVLHPAPPPIAPPLVQPSPPVARAAPVCETVPVHPLPQGEVQGLPPPPPPPPLPPPGIRPSSPVTVAALAHPPSGLHPTPSPAPGPHAPLMPPSPPSQVLPASEPKRHPSTLPVISDARSVLLEAIRKGIQLRKVEEQREQEAKHERIENDVATILSRRIAVEYSDSEDDSEFDEVDWLE

Variants of: B1
Settings: with gnai3_rat Gnai3, P08753
gnai3_rat Gnai3, P08753, sequence (P08753 whole entry): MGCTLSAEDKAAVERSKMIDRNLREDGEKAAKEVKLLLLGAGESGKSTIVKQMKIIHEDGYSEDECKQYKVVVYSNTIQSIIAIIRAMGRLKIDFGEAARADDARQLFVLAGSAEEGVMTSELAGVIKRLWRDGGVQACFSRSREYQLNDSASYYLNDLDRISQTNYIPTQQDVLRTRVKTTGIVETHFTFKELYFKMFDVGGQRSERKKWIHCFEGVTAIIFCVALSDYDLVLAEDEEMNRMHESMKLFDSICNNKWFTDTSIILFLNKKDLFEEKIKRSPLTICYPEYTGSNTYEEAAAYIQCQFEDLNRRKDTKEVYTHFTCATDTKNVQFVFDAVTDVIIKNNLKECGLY

Variant	effect of a mutation on the interaction
MPLVKRNIDPRHLCHTALPRGIKNELECVTNISLANIIRQLSSLSKYAEDIFGELFNEAHSFSFRVNSLQERVDRLSVSVTQLDPKEEELSLQDITMRKAFRSSTIQDQQLFDRKTLPIPLQETYDVCEQPPPLNVLTPYRDDGKEGLKFYTNPSYFFDLWKEKMLQDTEDKRKEKRKQKQKNLDRPHEPEKVPRAPHDRRREWQKLAQGPELAEDDADLLHKHIEVANGPASHFETRPQTYVDHMDGSYSLSALPFSQMSELLSRAEERVLVRPHEPPPPPPMHAAGDARPTPTCVSSAAGLIENRPQSPAAGRTPVFVSPTPPPPPPPLPSALSTSSLRASMTSTPPPPVPPPPPPPAPALQAPAVPPPPAPLQIAPGVLHPAPPPIAPPLVQPSPPVARAAPVCETVPVHPLPQGEVQGLPPPPPPPPLPPPGIRPSSPVTVAALAHPPSGLHPTPSPAPGPHAPLMPPSPPSQVLPASEPKRHPSTLPVISDARSVLLEAIRKGIQLRKVEEAREQEAKHERIENDVATILSRRIAVEYSDSEDDSEFDEVDWLE [Q517A]	decreasing interaction

Variants of: B1
Settings: with actb_rat Actb

Variant	effect of a mutation on the interaction
MPLVKRNIDPRHLCHTALPRGIKNELECVTNISLANIIRQLSSLSKYAEDIFGELFNEAHSFSFRVNSLQERVDRLSVSVTQLDPKEEELSLQDITMRKAFRSSTIQDQQLFDRKTLPIPLQETYDVCEQPPPLNVLTPYRDDGKEGLKFYTNPSYFFDLWKEKMLQDTEDKRKEKRKQKQKNLDRPHEPEKVPRAPHDRRREWQKLAQGPELAEDDADLLHKHIEVANGPASHFETRPQTYVDHMDGSYSLSALPFSQMSELLSRAEERVLVRPHEPPPPPPMHAAGDARPTPTCVSSAAGLIENRPQSPAAGRTPVFVSPTPPPPPPPLPSALSTSSLRASMTSTPPPPVPPPPPPPAPALQAPAVPPPPAPLQIAPGVLHPAPPPIAPPLVQPSPPVARAAPVCETVPVHPLPQGEVQGLPPPPPPPPLPPPGIRPSSPVTVAALAHPPSGLHPTPSPAPGPHAPLMPPSPPSQVLPASEPKRHPSTLPVISDARSVLLEAIRKGIQLRKVEEAREQEAKHERIENDVATILSRRIAVEYSDSEDDSEFDEVDWLE [Q517A]	decreasing interaction

Variants of: B1
Settings: with arpc2_human ARPC2, O15144

Variant	effect of a mutation on the interaction
MPLVKRNIDPRHLCHTALPRGIKNELECVTNISLANIIRQLSSLSKYAEDIFGELFNEAHSFSFRVNSLQERVDRLSVSVTQLDPKEEELSLQDITMRKAFRSSTIQDQQLFDRKTLPIPLQETYDVCEQPPPLNVLTPYRDDGKEGLKFYTNPSYFFDLWKEKMLQDTEDKRKEKRKQKQKNLDRPHEPEKVPRAPHDRRREWQKLAQGPELAEDDADLLHKHIEVANGPASHFETRPQTYVDHMDGSYSLSALPFSQMSELLSRAEERVLVRPHEPPPPPPMHAAGDARPTPTCVSSAAGLIENRPQSPAAGRTPVFVSPTPPPPPPPLPSALSTSSLRASMTSTPPPPVPPPPPPPAPALQAPAVPPPPAPLQIAPGVLHPAPPPIAPPLVQPSPPVARAAPVCETVPVHPLPQGEVQGLPPPPPPPPLPPPGIRPSSPVTVAALAHPPSGLHPTPSPAPGPHAPLMPPSPPSQVLPASEPKRHPSTLPVISDARSVLLEAIRKGIQLRKVEEAREQEAKHERIENDVATILSRRIAVEYSDSEDDSEFDEVDWLE [Q517A]	decreasing interaction
